Columns and labels:
[1] = target: T1, OsEME1-MBP (MBP fusion, used in MST) (Oryza sativa L. japonica cv. KY131, UniProt Q0J9J6 1-650); assay: MST; 100 nM DNA, 30 C; substrate called Y-Flag in Methods; EMSA/cleavage: 25 mM Tris-HCl pH 7.5, 1 mM MgCl2, 100 mg/mL BSA (so in the source), 1 mM DTT, 5 mM ATP, 2.5 uM Cy5 substrate, 20 uM protein, 30 C, 15% TBE-PAGE after; conditions: protein: recombinant; tags: MBP; splayed Y: X1 1-25 paired with X4 26-50; 25 nt unpaired 3' arm of X1 and 5' arm of X4
T1 sequence: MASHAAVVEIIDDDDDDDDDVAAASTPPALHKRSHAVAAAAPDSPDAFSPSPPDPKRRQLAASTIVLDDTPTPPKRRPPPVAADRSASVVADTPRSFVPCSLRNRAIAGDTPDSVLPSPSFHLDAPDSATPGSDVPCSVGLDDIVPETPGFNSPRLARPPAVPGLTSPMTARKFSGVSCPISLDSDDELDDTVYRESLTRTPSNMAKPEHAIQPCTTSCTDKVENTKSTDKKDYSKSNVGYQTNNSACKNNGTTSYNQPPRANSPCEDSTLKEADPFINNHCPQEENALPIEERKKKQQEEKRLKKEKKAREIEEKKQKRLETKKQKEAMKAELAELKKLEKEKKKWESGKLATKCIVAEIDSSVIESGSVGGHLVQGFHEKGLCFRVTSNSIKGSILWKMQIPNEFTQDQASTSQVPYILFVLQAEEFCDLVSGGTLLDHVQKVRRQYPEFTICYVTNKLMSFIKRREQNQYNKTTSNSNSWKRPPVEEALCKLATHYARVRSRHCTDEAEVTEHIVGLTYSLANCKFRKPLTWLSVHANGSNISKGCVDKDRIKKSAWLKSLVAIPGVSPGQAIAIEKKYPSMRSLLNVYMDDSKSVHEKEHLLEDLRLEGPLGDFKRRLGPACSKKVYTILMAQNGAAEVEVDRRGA

[2] = target: T2, OsEME1 (MBP removed by TEVp) (Oryza sativa L. japonica cv. KY131, UniProt Q0J9J6 1-650); assay: EMSA; 20 uM protein, 1 mM Mg2+, 5 mM ATP; EMSA/cleavage: 25 mM Tris-HCl pH 7.5, 1 mM MgCl2, 100 mg/mL BSA (so in the source), 1 mM DTT, 5 mM ATP, 2.5 uM Cy5 substrate, 20 uM protein, 30 C, 15% TBE-PAGE after; conditions: protein: recombinant, tags: MBP cleaved by TEVp, splayed Y: X1 1-25 paired with X2 26-50, 25 nt unpaired arms
T2 sequence: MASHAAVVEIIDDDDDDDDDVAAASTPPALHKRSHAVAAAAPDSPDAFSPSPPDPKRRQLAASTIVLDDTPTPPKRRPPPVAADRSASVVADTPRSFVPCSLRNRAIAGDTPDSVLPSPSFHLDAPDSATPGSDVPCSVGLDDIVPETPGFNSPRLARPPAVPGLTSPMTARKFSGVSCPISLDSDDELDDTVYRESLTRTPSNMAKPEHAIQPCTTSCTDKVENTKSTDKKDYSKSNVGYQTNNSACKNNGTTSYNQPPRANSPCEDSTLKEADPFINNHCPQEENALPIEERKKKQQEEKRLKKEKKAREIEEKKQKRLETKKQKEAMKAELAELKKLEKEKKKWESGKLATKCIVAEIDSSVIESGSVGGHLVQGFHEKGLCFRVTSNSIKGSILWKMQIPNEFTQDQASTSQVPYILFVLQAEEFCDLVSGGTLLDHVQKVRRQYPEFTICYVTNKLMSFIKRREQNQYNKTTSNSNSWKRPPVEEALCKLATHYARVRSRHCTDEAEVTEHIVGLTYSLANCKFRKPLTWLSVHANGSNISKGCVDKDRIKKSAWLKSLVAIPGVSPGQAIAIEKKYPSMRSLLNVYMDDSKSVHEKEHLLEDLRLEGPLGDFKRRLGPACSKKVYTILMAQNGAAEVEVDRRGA

[3] = target: T3, OsMUS81 (MBP removed by TEVp) (Oryza sativa L. japonica cv. KY131, UniProt Q8GT06 1-660); assay: EMSA; 1 mM Mg2+, 5 mM ATP; not responsible for cleavage; EMSA/cleavage: 25 mM Tris-HCl pH 7.5, 1 mM MgCl2, 100 mg/mL BSA (so in the source), 1 mM DTT, 5 mM ATP, 2.5 uM Cy5 substrate, 20 uM protein, 30 C, 15% TBE-PAGE after; conditions: protein: recombinant, tags: MBP cleaved by TEVp, label: Cy5 on X1 (3' end)
T3 sequence: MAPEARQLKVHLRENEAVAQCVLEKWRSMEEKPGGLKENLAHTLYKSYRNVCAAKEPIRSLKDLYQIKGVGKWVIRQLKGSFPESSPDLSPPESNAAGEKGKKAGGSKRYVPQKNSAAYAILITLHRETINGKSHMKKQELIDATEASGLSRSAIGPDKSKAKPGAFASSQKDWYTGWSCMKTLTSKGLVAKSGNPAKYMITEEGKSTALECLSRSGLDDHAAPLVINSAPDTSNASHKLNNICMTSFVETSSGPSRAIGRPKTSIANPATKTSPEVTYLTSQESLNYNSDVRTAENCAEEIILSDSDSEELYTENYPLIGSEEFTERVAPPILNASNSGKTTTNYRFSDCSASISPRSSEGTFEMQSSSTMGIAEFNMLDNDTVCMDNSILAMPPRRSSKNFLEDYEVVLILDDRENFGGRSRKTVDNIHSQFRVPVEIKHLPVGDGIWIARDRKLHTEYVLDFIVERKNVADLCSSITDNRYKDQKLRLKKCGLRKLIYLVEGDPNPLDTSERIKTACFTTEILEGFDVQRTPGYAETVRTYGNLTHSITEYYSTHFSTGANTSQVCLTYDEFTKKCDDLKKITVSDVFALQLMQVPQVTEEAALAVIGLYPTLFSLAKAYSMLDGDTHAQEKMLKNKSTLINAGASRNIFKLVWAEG

B1: Y12 (mixed)
DNA 1: GACGCTGCCGAATTCTGGCTTGCTAGGACATCTTTGCCCACGTTGACCCG
DNA 2: GCGATAGTCTCTAGACAGCATGTCCTAGCAAGCCAGAATTCGGCAGCGTC
Kd [1]: 16.3 ± 2.16 µM

B2: OsGLK2-Y12 (mixed)
DNA 1: GAAGAAGAAGGACGACGAGGAAAGGTCGTCGTCGTTGCCGGAGGAGAAAG
DNA 2: CTCCGTCGTCACCGCGCTCAGGACCCCTTTCCTCGTCGTCCTTCTTCTTC
binding result ([2]; label: 5' Cy5 on GLK2 X1): binds

B3: pre-X12 (mixed)
DNA 1: GACGCTGCCGAATTCTGGCTTGCTAGGACATCTTTGCCCACGTTGACCCG
DNA 2: CGGGTCAACGTGGGCAAAGATGTCCTAGCAATGTAATCGTCTATGACGTC
DNA 3: GCGATAGTCTCTAGACAGCATGTCCTAGCAAGCCAGAATTCGGCAGCGTC
binding result ([3]; three-strand junction: X1 1-25 with X4 26-50, X1 26-50 with X2 1-25, X2 3' and X4 5' arms single-stranded): binds

B4: X12 (structured_DNA)
DNA 1: GACGCTGCCGAATTCTGGCTTGCTAGGACATCTTTGCCCACGTTGACCCG
DNA 2: CGGGTCAACGTGGGCAAAGATGTCCTAGCAATGTAATCGTCTATGACGTC
DNA 3: GACGTCATAGACGATTACATTGCTAGGACATGCTGTCTAGAGACTATCGC
DNA 4: GCGATAGTCTCTAGACAGCATGTCCTAGCAAGCCAGAATTCGGCAGCGTC
binding result ([3]; four-way Holliday junction with 12-bp mobile homologous core): binds

B5: OsGLK1-Y12 (mixed)
DNA 1: CGTCGATGACATAGACTTCGGGGACTTCTTCCTGAGGCTGGAGGACGGTG
DNA 2: GAAGTCGGTGAAGATCTCGGCCGGGGTCCCCGAAGTCTATGTCATCGACG
binding result ([2]; label: 5' Cy5 on GLK1 X1): binds
